Experiments:
[1] = biological target: human fibrin (Sigma, F5386) (human) (UniProt P02671); assay: SEC-HPLC of the mixture after 1 h at 37 C; second peak (thrombin alone runs at 18.778)
[2] = biological target: human fibrin (Sigma, F5386) (human) (UniProt P02671); assay: SEC-HPLC of the mixture after 1 h at 37 C; peak of the bound pair

Chain of human fibrin (Sigma, F5386) (human) (P02671 36-629, chain 1 of 3): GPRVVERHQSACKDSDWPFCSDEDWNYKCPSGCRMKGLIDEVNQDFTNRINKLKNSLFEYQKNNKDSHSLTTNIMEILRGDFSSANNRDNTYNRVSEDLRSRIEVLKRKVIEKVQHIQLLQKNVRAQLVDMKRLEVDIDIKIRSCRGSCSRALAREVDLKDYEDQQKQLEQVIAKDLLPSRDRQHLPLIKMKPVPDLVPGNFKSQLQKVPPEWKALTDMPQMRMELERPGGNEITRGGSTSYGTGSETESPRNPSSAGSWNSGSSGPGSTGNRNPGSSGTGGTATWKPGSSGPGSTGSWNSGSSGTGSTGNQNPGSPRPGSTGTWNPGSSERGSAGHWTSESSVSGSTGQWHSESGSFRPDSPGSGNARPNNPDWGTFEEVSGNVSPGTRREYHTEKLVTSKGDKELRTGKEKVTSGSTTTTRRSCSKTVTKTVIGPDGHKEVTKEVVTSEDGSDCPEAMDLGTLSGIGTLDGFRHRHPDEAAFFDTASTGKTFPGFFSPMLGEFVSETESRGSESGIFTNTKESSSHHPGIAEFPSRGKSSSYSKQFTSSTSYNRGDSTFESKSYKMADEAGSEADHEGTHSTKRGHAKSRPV
Chain of human fibrin (Sigma, F5386) (human) (P02675 45-491, chain 2 of 3, further chain): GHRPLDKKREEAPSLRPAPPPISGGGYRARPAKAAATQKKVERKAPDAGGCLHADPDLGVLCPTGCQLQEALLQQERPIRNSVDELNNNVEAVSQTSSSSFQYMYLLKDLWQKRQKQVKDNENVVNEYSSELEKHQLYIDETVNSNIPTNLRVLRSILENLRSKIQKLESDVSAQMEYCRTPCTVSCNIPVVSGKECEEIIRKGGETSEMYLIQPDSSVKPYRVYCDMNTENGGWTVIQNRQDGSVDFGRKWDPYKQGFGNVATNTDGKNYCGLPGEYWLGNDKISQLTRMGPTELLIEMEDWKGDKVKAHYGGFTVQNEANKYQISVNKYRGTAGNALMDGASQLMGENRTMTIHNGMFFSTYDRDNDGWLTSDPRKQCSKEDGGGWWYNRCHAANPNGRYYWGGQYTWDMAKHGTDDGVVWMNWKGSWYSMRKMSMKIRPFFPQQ
Chain of human fibrin (Sigma, F5386) (human) (P02679 other isoform, or with tags, fused parts or gaps, chain 3 of 3, further chain): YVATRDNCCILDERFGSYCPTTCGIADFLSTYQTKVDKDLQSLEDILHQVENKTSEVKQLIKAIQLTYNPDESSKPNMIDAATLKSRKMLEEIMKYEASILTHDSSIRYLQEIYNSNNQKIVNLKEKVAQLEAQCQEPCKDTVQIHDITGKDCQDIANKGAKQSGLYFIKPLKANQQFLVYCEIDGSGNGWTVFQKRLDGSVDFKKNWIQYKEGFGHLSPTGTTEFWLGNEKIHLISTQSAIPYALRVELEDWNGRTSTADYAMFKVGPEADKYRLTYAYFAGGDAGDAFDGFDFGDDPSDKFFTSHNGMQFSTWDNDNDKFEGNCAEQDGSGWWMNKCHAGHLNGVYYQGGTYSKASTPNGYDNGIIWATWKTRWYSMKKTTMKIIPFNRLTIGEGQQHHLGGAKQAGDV

## human thrombin (National Institute for the Control of Pharmaceutical and Biological Products, Lot No. 20021105) (from UniProt P00734 328-622) (enzyme)
[1]
  retention time (min), peak 2: 18.6 min
[2]
  retention time (min), peak 1: 12.6 min
